Test system in the first data set: not listed separately
Kind of data set: Pharmacokinetic studies, single s.c. dose in normal male Sprague-Dawley rats. The following applies: single bolus s.c. dose of 1 mg/kg in rats, FIG. 15. Format: in vivo, rat. The procedure: Pharmacokinetic properties of PEG-modified growth hormone compounds were compared to each other and to nonPEGylated growth hormone in male Sprague-Dawley rats (261-425 g) obtained from Charles River Laboratories. Catheters were surgically installed into the carotid artery for blood collection. Following successful catheter installation, animals were assigned to treatment groups (three to six per group) prior to dosing. Animals were dosed subcutaneously with 1 mg/kg of compound in a dose volume of 0.41-0.55 ml/kg. Blood samples were collected at various time points via the indwelling catheter and into EDTA-coated microfuge tubes. Plasma was collected after centrifugation, and stored at −80° C. until analysis. Compound concentrations were measured using antibody sandwich growth hormone ELISA kits from either BioSource International (Camarillo, Calif.) or Diagnostic Systems Laboratories (Webster, Tex.). Concentrations were calculated using standards corresponding to the analog that was dosed. Pharmacokinetic parameters were estimated using the modeling program WinNonlin (Pharsight, version 4.1). Noncompartmental analysis with linear-up/log-down trapezoidal integration was used, and concentration data was uniformly weighted.
Rats (n=3-4 per group) were given a single bolus dose of 1 mg/kg hGH wild-type protein (WHO hGH), His-tagged hGH polypeptide (his-hGH), or His-tagged hGH polypeptide comprising non-natural amino acid p-acetyl-phenylalanine at position 92 covalently linked to 30 kDa PEG (30 KPEG-pAF92(his)hGH). Plasma samples were taken over the indicated time intervals and assayed for injected compound as described.
Rats (n=3-6 per group) were given a single bolus dose of 1 mg/kg protein. hGH polypeptides comprising non-natural amino acid p-acetyl-phenylalanine covalently linked to 30 kDa PEG at each of six different positions were compared to WHO hGH and (his)-hGH. Plasma samples were taken over the indicated time intervals and assayed for injected compound as described. Concentration vs time curves were evaluated by noncompartmental analysis (Pharsight, version 4.1). Values shown are averages (+/− standard deviation). Cmax: maximum concentration; terminal t1/2: terminal half-life; AUC0->inf: area under the concentration-time curve extrapolated to infinity; MRT: mean residence time; Cl/f: apparent total, plasma clearance; Vz/f: apparent volume of distribution during terminal phase.
Consider “F92pAF-30KD PEG: His-tagged hGH polypeptide comprising p-acetyl-phenylalanine at position 92 covalently linked to 30 kDa PEG”, for which the “circulation (plasma concentrations) compared to control hGH” value is “dramatically extended circulation compared to control hGH”.

Staying with this data set, now noted: single-dose 1 mg/kg bolus s.c., normal male Sprague-Dawley rats.
In general, Cmax refers to the highest concentration seen after dosing. As usually defined, the MRT is the average time that molecules of a dose stay in the body. On to “F92pAF-30KD PEG: His-tagged hGH polypeptide comprising p-acetyl-phenylalanine at position 92 covalently linked to 30 kDa PEG”, for which the “AUC0−>inf” value is reported as 10,539 ng × hr/ml, the Cl/f was 2.25 mL/min/kg, the maximum concentration (Cmax) is 663 ng/mL and the mean residence time (MRT) is recorded as 15.05 h. The “Terminal t1/2” value is 4.51 h.

As for “G131pAF-30KPEG: hGH polypeptide comprising p-acetyl-phenylalanine at position 131 covalently linked to 30 kDa PEG”, the “AUC0−>inf” value is recorded as 6,978 ng × hr/ml, the Cl/f came out at 2.68 mL/min/kg, the Cmax worked out at 497 ng/mL and the mean residence time MRT is reported as 14.28 h. For the same substance, the “Terminal t1/2” value was 4.41 h.

In the case of “K145pAF-30KPEG: hGH polypeptide comprising p-acetyl-phenylalanine at position 145 covalently linked to 30 kDa PEG”, the “AUC0−>inf” value was 13,162 ng × hr/ml, the Cl/f turned out to be 1.47 mL/min/kg, the Cmax amounted to 634 ng/mL and the mean residence time MRT is 17.82 h. The “Terminal t1/2” value came out at 5.87 h. The like results for “R134pAF-30KD PEG: hGH polypeptide comprising p-acetyl-phenylalanine at position 134 covalently linked to 30 kDa PEG” were, in that order, 7,304 ng × hr/ml, 2.52 mL/min/kg, 566 ng/mL, 12.15 h and 4.36 h.

As to “Y143pAF-30KPEG: hGH polypeptide comprising p-acetyl-phenylalanine at position 143 covalently linked to 30 kDa PEG”, the “AUC0−>inf” value is given as 17,494 ng × hr/ml, the Cl/f stood at 0.983 mL/min/kg, the Cmax was found to be 803 ng/mL and the MRT is 18.83 h. Moreover, the “Terminal t1/2” value was determined as 6.02 h.

The target of the next data set is T1, rat GHR ECD (L43R) (Rattus norvegicus, UniProt P16310, L61R).
T1 construct: (GHR ECD, amino acids S29-T238) was cloned into pET20b vector; made in house
T1 sequence (P16310 47-256 L61R): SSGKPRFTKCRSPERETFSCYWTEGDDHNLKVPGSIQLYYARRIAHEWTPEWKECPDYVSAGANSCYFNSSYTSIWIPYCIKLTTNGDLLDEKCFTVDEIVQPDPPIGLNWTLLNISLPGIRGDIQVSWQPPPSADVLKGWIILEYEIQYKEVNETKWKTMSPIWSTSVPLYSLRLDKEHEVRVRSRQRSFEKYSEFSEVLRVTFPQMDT
Kind of data set: Biacore analysis of binding of GH to GHR. The following applies: rat GHR ECD (L43R) immobilized on a CM5 chip, bivalent analyte model. As to the method:
Cloning and purification of rat GH receptor The extracellular domain of rat GH receptor (GHR ECD, amino acids S29-T238) was cloned into pET20b vector (Novagen) between Nde I and Hind III sites in frame with C-terminal 6H is tag. A mutation of L43 to R was introduced to further approximate the human GH receptor binding site (Souza et al., Proc Natl Acad Sci USA. (1995) 92(4): 959-63). Recombinant protein was produced in BL21 (DE3) E. coli cells (Novagen) by induction with 0.4 mM IPTG at 30° C. for 4-5 hours. After lysing the cells, the pellet was washed four times by resuspending in a dounce with 30 mL of 50 mM Tris, pH 7.6, 100 mM NaCl, 1 mM EDTA, 1% Triton X-100, and twice with the same buffer without Triton X-100. […] Refolding was accomplished by means of passing an aliquot of the inclusion body solution through a S100 (Sigma) gel filtration column, equilibrated with 50 mM Tris, pH 7.8, 1 M L-arginine, 3.7 mM cystamine, 6.5 mM cysteamine. Fractions containing soluble protein were combined and dialyzed against 50 mM Tris, pH 7.6, 200 mM NaCl, 10% glycerol. The sample was briefly centrifuged to remove any precipitate and incubated with an aliquot of Talon resin (Clontech), according to manufacturer's instructions. After washing the resin with 20 volumes of dialysis buffer supplemented with 5 mM imidazole, protein was eluted with 120 mM imidazole in dialysis buffer. Finally, the sample was dialyzed overnight against 50 mM Tris, pH 7.6, 30 mM NaCl, 1 mM EDTA, 10% glycerol, centrifuged briefly to remove any precipitate, adjusted to 20% glycerol final concentration, aliquoted and stored at −80 C. Concentration of the protein was measured by OD(280) using calculated extinction coefficient of ε=65,700 M^−1*cm^−1.
Approximately 600-800 RUs of soluble GHR ECD was immobilized on a Biacore™ CM5 chip, using a standard amine-coupling procedure, as recommended by the manufacturer. […] See, e.g., Cunningham et al. J Mol. Biol. (1993) 234(3): 554-63 and Wells J A. Proc Natl Acad Sci USA (1996) 93(1): 1-6).
Various concentrations of wild type or mutant GH (0.1-300 nM) in HBS-EP buffer (Biacore™, Pharmacia) were injected over the GHR surface at a flow rate of 40 μl/min for 4-5 minutes, and dissociation was monitored for 15 minutes post-injection. The surface was regenerated by a 15 second pulse of 4.5M MgCl2. […] Reference cell with no receptor immobilized was used to subtract any buffer bulk effects and non-specific binding.
Kinetic binding data obtained from GH titration experiments was processed with BiaEvaluation 4.1 software (BIACORE™). […] Equilibrium dissociation constants (Kd) were calculated as ratios of individual rate constants (koff/kon).
In general terms: Surface plasmon resonance follows binding to a sensor surface in real time, without labels.
In general, kon refers to the rate constant with which the complex forms. Low values mean slow association, high ones fast association. Substance “A155pAF: hGH with p-acetyl-phenylalanine (pAF) substituted for A155” displayed an association rate constant (kon) of 580000 M⁻¹ s⁻¹.

Substance “E88pAF: hGH with p-acetyl-phenylalanine (pAF) substituted for E88” showed a kon of 680000 M⁻¹ s⁻¹. The substance “F92pAF-5KD PEG: hGH comprising p-acetyl-phenylalanine at position 92 covalently linked to a 5 kDa PEG molecule” returned an on-rate (kon) of 620000 M⁻¹ s⁻¹. Same read-out and setting: next, “F92pAF-20KD PEG: hGH comprising p-acetyl-phenylalanine at position 92 covalently linked to a 20 kDa PEG molecule”: 170000 M⁻¹ s⁻¹; “F92pAF-30KD PEG: His-tagged hGH polypeptide comprising p-acetyl-phenylalanine at position 92 covalently linked to 30 kDa PEG”: 130000 M⁻¹ s⁻¹; “F92pAF: hGH with p-acetyl-phenylalanine (pAF) substituted for F92”: 860000 M⁻¹ s⁻¹. “F139pAF: hGH with p-acetyl-phenylalanine (pAF) substituted for F139” had a kon of 680000 M⁻¹ s⁻¹. “G131pAF: hGH with p-acetyl-phenylalanine (pAF) substituted for G131” registered an association rate constant (kon) of 600000 M⁻¹ s⁻¹. This kon and that of the substance before are within 1.5-fold of each other. The substance “G136pAF: hGH with p-acetyl-phenylalanine (pAF) substituted for G136” displayed an on-rate constant (kon) of 620000 M⁻¹ s⁻¹. The kon values of the last two substances are within 1.5-fold of each other. Turning to “K140pAF: hGH with p-acetyl-phenylalanine (pAF) substituted for K140”, the kon was 720000 M⁻¹ s⁻¹.

As for “K145pAF: hGH with p-acetyl-phenylalanine (pAF) substituted for K145”, the on-rate constant (kon) is 640000 M⁻¹ s⁻¹. This kon and that of the substance before are within 1.5-fold of each other. Same read-out and setting: next, “N12pAF: hGH with p-acetyl-phenylalanine (pAF) substituted for N12”: 1.25e+06 M⁻¹ s⁻¹; “N99pAF: hGH with p-acetyl-phenylalanine (pAF) substituted for N99”: 220000 M⁻¹ s⁻¹. Same read-out and setting: next, “P133pAF: hGH with p-acetyl-phenylalanine (pAF) substituted for P133”: 640000 M⁻¹ s⁻¹; “Q91pAF: hGH with p-acetyl-phenylalanine (pAF) substituted for Q91”: 660000 M⁻¹ s⁻¹; “R16pAF: hGH with p-acetyl-phenylalanine (pAF) substituted for R16”: 680000 M⁻¹ s⁻¹. As for “R94pAF: hGH with p-acetyl-phenylalanine (pAF) substituted for R94”, the kon came out at 560000 M⁻¹ s⁻¹. This kon and that of the substance before are within 1.5-fold of each other. Regarding “R134pAF-5KD PEG: hGH comprising p-acetyl-phenylalanine at position 134 linked to 5 kDa PEG”, the kon came out at 680000 M⁻¹ s⁻¹. As for “R134pAF-30KD PEG: hGH polypeptide comprising p-acetyl-phenylalanine at position 134 covalently linked to 30 kDa PEG”, the association rate constant (kon) is 70000 M⁻¹ s⁻¹. As to “R134pAF: hGH with p-acetyl-phenylalanine (pAF) substituted for R134”, the on-rate (kon) came out at 840000 M⁻¹ s⁻¹. Against the preceding substance, the kon is about 12-fold higher.

Take “S95pAF: hGH with p-acetyl-phenylalanine (pAF) substituted for S95”: the kon was 70000 M⁻¹ s⁻¹. Consider “T135pAF: hGH with p-acetyl-phenylalanine (pAF) substituted for T135”, for which the kon stood at 720000 M⁻¹ s⁻¹.

For the substance “Y35pAF: hGH with p-acetyl-phenylalanine (pAF) substituted for Y35”, the on-rate (kon) stood at 780000 M⁻¹ s⁻¹.

The substance “Y103pAF: hGH with p-acetyl-phenylalanine (pAF) substituted for Y103” returned an association rate constant (kon) of approximately 6000 M⁻¹ s⁻¹. On the same count and under the same terms, then “Y111pAF: hGH with p-acetyl-phenylalanine (pAF) substituted for Y111”, with 840000 M⁻¹ s⁻¹.

“Y143pAF: hGH with p-acetyl-phenylalanine (pAF) substituted for Y143” returned a kon of 780000 M⁻¹ s⁻¹. The kon values of the last two substances are within 1.5-fold of each other.
